Experimental data from US20150133367.

Target: T1, SCEEVCKPGGP (SEQ ID NO:47)
T1 chain: SCEEVCKPGGP

B1: Cathepsin K (protein)
chain: APDSVDYRKKGYVTPVKNQGQCGSCWAFSSVGALEGQLKKKTGKLLNLSPQNLVDCVSENDGCGGGYMTNAFQYVQKNRGIDSEDAYPYVGQEESCMYNPTGKAAKCRGYREIPEGNEKALKRAVARVGPVSVAIDASLTSFQFYSKGVYYDESCNSDNLNHAVLAVGYGIQKGNKHWIIKNSWGENWGNKGYILMARNKNNACGIANLASFPKM
With B1 the “cleavage of the peptide by the enzyme” value was “This peptide did not inhibit cathepsin K but rather was cleaved by the enzyme”.
